Laboratory results from the supplement of paper PMC9112550, “Optimization of the antimicrobial peptide Bac7 by deep mutational scanning” (BMC Biology, 2022).

System: Escherichia coli TOP10
Experiment: shrunken log2 fold change of peptide-encoding DNA abundance (4.5 h post-induction vs induction); higher = less antimicrobial activity (less host growth inhibition)
Conditions: time post-induction: 4.5 h; library: site-saturation at positions 5, 18, 19, 20
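Further: peptides expressed intracellularly from a pBAD plasmid library in pooled LB shake-flask culture, induced with 0.3% L-arabinose, DNA abundance read by NGS, three biological replicates, DESeq2 with apeglm shrinkage.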

Row | Sequence | shrunken log2 fold change
1 | RRIRIRPPRLPRPRPRPPATPRP | 0.177
2 | RRIRARPPRLPRPRPRPDMFPRP | 0.0745
3 | RRIRMRPPRLPRPRPRPDGGPRP | 0.135
4 | RRIRDRPPRLPRPRPRPFLPPRP | -0.358
5 | RRIRTRPPRLPRPRPRPAQWPRP | 0.0699
6 | RRIRVRPPRLPRPRPRPSRTPRP | -0.47
7 | RRIRIRPPRLPRPRPRPRSSPRP | 0.152
8 | RRIRARPPRLPRPRPRPVQPPRP | 0.392
9 | RRIRWRPPRLPRPRPRPRYCPRP | -0.139
10 | RRIRHRPPRLPRPRPRPRMQPRP | 0.183
11 | RRIRCRPPRLPRPRPRPAFWPRP | 0.232
12 | RRIRNRPPRLPRPRPRPVNKPRP | -0.19
13 | RRIRPRPPRLPRPRPRPLWCPRP | -0.158
14 | RRIRYRPPRLPRPRPRPPCLPRP | -0.288
15 | RRIRMRPPRLPRPRPRPNDQPRP | 0.0566
16 | RRIRFRPPRLPRPRPRPCWKPRP | -0.0141
17 | RRIRQRPPRLPRPRPRPQVKPRP | -0.101
18 | RRIRMRPPRLPRPRPRPQQMPRP | -0.0302
19 | RRIRPRPPRLPRPRPRPPNWPRP | 0.534
20 | RRIRGRPPRLPRPRPRPSMPPRP | 0.0931
21 | RRIRQRPPRLPRPRPRPEVQPRP | -0.0138
22 | RRIRRRPPRLPRPRPRPRTTPRP | 0.406
23 | RRIRTRPPRLPRPRPRPMHIPRP | -0.158
24 | RRIRRRPPRLPRPRPRPLMWPRP | 0.163
25 | RRIRQRPPRLPRPRPRPCCYPRP | -0.0451

Row | Sequence | shrunken log2 fold change
26 | RRIRMRPPRLPRPRPRPNSEPRP | 0.128
27 | RRIRCRPPRLPRPRPRPIPGPRP | -0.000108
28 | RRIRTRPPRLPRPRPRPARDPRP | 0.146
29 | RRIRCRPPRLPRPRPRPQHAPRP | -0.0229
30 | RRIRQRPPRLPRPRPRPHFWPRP | -0.0983
31 | RRIRGRPPRLPRPRPRPAKHPRP | 0.209
32 | RRIRCRPPRLPRPRPRPILHPRP | -0.575
33 | RRIRERPPRLPRPRPRPNEDPRP | -0.151
34 | RRIRSRPPRLPRPRPRPWFSPRP | -0.544
35 | RRIRTRPPRLPRPRPRPNHAPRP | 0.176
36 | RRIRNRPPRLPRPRPRPNFIPRP | -0.105
37 | RRIRVRPPRLPRPRPRPNDKPRP | -0.351
38 | RRIRKRPPRLPRPRPRPCFWPRP | 0.42
39 | RRIRDRPPRLPRPRPRPDYGPRP | -0.181
40 | RRIRKRPPRLPRPRPRPIWYPRP | -0.26
41 | RRIRLRPPRLPRPRPRPMCQPRP | 0.0751
42 | RRIRNRPPRLPRPRPRPRAGPRP | 0.25
43 | RRIRWRPPRLPRPRPRPSCWPRP | 0.0114
44 | RRIRARPPRLPRPRPRPVAFPRP | 0.457
45 | RRIRVRPPRLPRPRPRPNAHPRP | 0.038
46 | RRIRDRPPRLPRPRPRPGESPRP | -0.00997
47 | RRIRDRPPRLPRPRPRPGCVPRP | 0.616
48 | RRIRDRPPRLPRPRPRPLILPRP | -0.096
49 | RRIRFRPPRLPRPRPRPYCSPRP | -0.206
50 | RRIRKRPPRLPRPRPRPACKPRP | 0.0609

Row | Sequence | shrunken log2 fold change
51 | RRIRKRPPRLPRPRPRPLHPPRP | 0.158
52 | RRIRRRPPRLPRPRPRPGNMPRP | -0.266
53 | RRIRDRPPRLPRPRPRPIAGPRP | -0.0166
54 | RRIRVRPPRLPRPRPRPVRKPRP | 0.274
55 | RRIRTRPPRLPRPRPRPNAGPRP | 0.0361
56 | RRIRIRPPRLPRPRPRPDLMPRP | -0.396
57 | RRIRARPPRLPRPRPRPGLAPRP | 1
58 | RRIRSRPPRLPRPRPRPPEFPRP | -0.119
59 | RRIRFRPPRLPRPRPRPVARPRP | 0.0942
60 | RRIRIRPPRLPRPRPRPAAHPRP | -0.0526
61 | RRIRNRPPRLPRPRPRPNAKPRP | -0.109
62 | RRIRDRPPRLPRPRPRPSPPPRP | -0.15
63 | RRIRIRPPRLPRPRPRPHRWPRP | -0.0221
64 | RRIRERPPRLPRPRPRPNHNPRP | -0.418
65 | RRIRERPPRLPRPRPRPRFIPRP | -0.414
66 | RRIRWRPPRLPRPRPRPHYHPRP | -0.506
67 | RRIRLRPPRLPRPRPRPCKMPRP | -0.503
68 | RRIRSRPPRLPRPRPRPCIIPRP | 0.00867
69 | RRIRARPPRLPRPRPRPMIAPRP | 0.263
70 | RRIRYRPPRLPRPRPRPFGWPRP | 0.102
71 | RRIRGRPPRLPRPRPRPRYEPRP | 0.409
72 | RRIRWRPPRLPRPRPRPRIDPRP | -0.0323
73 | RRIRARPPRLPRPRPRPNYRPRP | 0.0835
74 | RRIRLRPPRLPRPRPRPSMLPRP | -0.965
75 | RRIRERPPRLPRPRPRPDQPPRP | 0.0454

Row | Sequence | shrunken log2 fold change
76 | RRIRQRPPRLPRPRPRPVTWPRP | -0.073
77 | RRIRLRPPRLPRPRPRPTFSPRP | -0.0485
78 | RRIRHRPPRLPRPRPRPAWAPRP | 0.48
79 | RRIRYRPPRLPRPRPRPCVFPRP | -0.123
80 | RRIRHRPPRLPRPRPRPDGMPRP | -0.444
81 | RRIRARPPRLPRPRPRPNLSPRP | -0.0536
82 | RRIRNRPPRLPRPRPRPPSLPRP | -0.0145
83 | RRIRFRPPRLPRPRPRPMELPRP | 0.112
84 | RRIRPRPPRLPRPRPRPTETPRP | 0.132
85 | RRIRSRPPRLPRPRPRPLSPPRP | 0.0487
86 | RRIRCRPPRLPRPRPRPPKTPRP | -0.00862
87 | RRIRKRPPRLPRPRPRPHFYPRP | -0.0034
88 | RRIRLRPPRLPRPRPRPESFPRP | 0.0256
89 | RRIRGRPPRLPRPRPRPPCSPRP | 0.238
90 | RRIRTRPPRLPRPRPRPFGGPRP | -0.0397
91 | RRIRLRPPRLPRPRPRPRMEPRP | 0.123
92 | RRIRTRPPRLPRPRPRPELQPRP | -0.0178
93 | RRIRDRPPRLPRPRPRPPFHPRP | 0.0293
94 | RRIRHRPPRLPRPRPRPYLGPRP | -0.403
95 | RRIRDRPPRLPRPRPRPWLMPRP | -0.1
96 | RRIRDRPPRLPRPRPRPDKVPRP | -0.159
97 | RRIRERPPRLPRPRPRPFSDPRP | -0.0836
98 | RRIRARPPRLPRPRPRPGVKPRP | 0.0545
99 | RRIRCRPPRLPRPRPRPFFLPRP | -0.512
100 | RRIRRRPPRLPRPRPRPPESPRP | 0.26

Row | Sequence | shrunken log2 fold change
101 | RRIRDRPPRLPRPRPRPPVKPRP | 0.421
102 | RRIRMRPPRLPRPRPRPKFSPRP | 0.0925
103 | RRIRKRPPRLPRPRPRPKKNPRP | 0.555
104 | RRIRYRPPRLPRPRPRPTWWPRP | 0.134
105 | RRIRWRPPRLPRPRPRPTQQPRP | -0.0891
106 | RRIRVRPPRLPRPRPRPCNAPRP | -0.184
107 | RRIRMRPPRLPRPRPRPEVNPRP | 0.156
108 | RRIRRRPPRLPRPRPRPATWPRP | 0.359
109 | RRIRPRPPRLPRPRPRPPSCPRP | -0.058
110 | RRIRMRPPRLPRPRPRPMTWPRP | 0.0101
111 | RRIRHRPPRLPRPRPRPLMQPRP | -0.248
112 | RRIRQRPPRLPRPRPRPPHRPRP | 0.445
113 | RRIRFRPPRLPRPRPRPRRVPRP | 0.258
114 | RRIRWRPPRLPRPRPRPMVHPRP | 0.0275
115 | RRIRMRPPRLPRPRPRPCCLPRP | 0.273
116 | RRIRLRPPRLPRPRPRPLWSPRP | 0.0537
117 | RRIRARPPRLPRPRPRPMWMPRP | 0.0208
118 | RRIRFRPPRLPRPRPRPIAEPRP | 0.2
119 | RRIRGRPPRLPRPRPRPLHHPRP | 0.452
120 | RRIRNRPPRLPRPRPRPLCDPRP | 0.0696
121 | RRIRCRPPRLPRPRPRPNTMPRP | -0.682
122 | RRIRKRPPRLPRPRPRPSLRPRP | -0.278
123 | RRIRLRPPRLPRPRPRPCEKPRP | -0.00674
124 | RRIRWRPPRLPRPRPRPKHNPRP | -0.152
125 | RRIRMRPPRLPRPRPRPSQTPRP | 0.38
